Source: the supplement of paper PMC10567573

B1: DVL3 (parent)
chain: FCADNPSELPPPMERTGGIGDSRP

Variants of: B1
Test: protein stability index of a GFP-peptide fusion (GPS, HEK-293T) (PSI 1-6); higher = more stable
Conditions: c terminus: a fixed tail appended
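Also: lentivirally expressed fusions sorted by FACS into six bins by GFP to DsRed ratio, PSI derived from sequencing read proportions per bin multiplied by bin number.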

Variant	protein stability index
FCADNPSELPLPMERTGGIGDSRP [P11L]	4.64
FCADNPSELPGPMERTGGIGDSRP [P11G]	4.16
FCADNPSELPMPMERTGGIGDSRP [P11M]	4.45
FCADNPSELPTPMERTGGIGDSRP [P11T]	5.12
FCADNPSELPEPMERTGGIGDSRP [P11E]	4.05
FCADNPSELPCPMERTGGIGDSRP [P11C]	4.33
FCADNPSELPQPMERTGGIGDSRP [P11Q]	4.54
FCADNPSELPVPMERTGGIGDSRP [P11V]	3.94
FCADNPSELPDPMERTGGIGDSRP [P11D]	4.74
FCADNPSELPRPMERTGGIGDSRP [P11R]	3.91
FCADNPSELPHPMERTGGIGDSRP [P11H]	4.43
FCADNPSELPYPMERTGGIGDSRP [P11Y]	4.23
FCADNPSELPSPMERTGGIGDSRP [P11S]	4.58
FCADNPSELPWPMERTGGIGDSRP [P11W]	3.64
FCADNPSELPFPMERTGGIGDSRP [P11F]	3.83
FCADNPSELPAPMERTGGIGDSRP [P11A]	5.1
FCADNPSELPNPMERTGGIGDSRP [P11N]	4.26
FCADNPSELPIPMERTGGIGDSRP [P11I]	4.54
FCAVNPSELPPPMERTGGIGDSRP [D4V]	3.79
FCATNPSELPPPMERTGGIGDSRP [D4T]	4.29
FCAWNPSELPPPMERTGGIGDSRP [D4W]	2.06
FCAYNPSELPPPMERTGGIGDSRP [D4Y]	3.98
FCASNPSELPPPMERTGGIGDSRP [D4S]	4.25
FCADNPSELPPPEERTGGIGDSRP [M13E]	5.18

Variant	protein stability index
FCADNPSELPPPKERTGGIGDSRP [M13K]	5.04
FCADNPSELPPPIERTGGIGDSRP [M13I]	4.27
FCADNPSELPPPLERTGGIGDSRP [M13L]	4.98
FCADNPSELPPPQERTGGIGDSRP [M13Q]	5
FCADNPSELPPPYERTGGIGDSRP [M13Y]	4.07
FCADNPSELPPPDERTGGIGDSRP [M13D]	4.98
FCADNPSELPPPRERTGGIGDSRP [M13R]	4.2
FCADNPSELPPPGERTGGIGDSRP [M13G]	4.67
FCADNPSELPPPTERTGGIGDSRP [M13T]	4.57
FCADNPSELPPPNERTGGIGDSRP [M13N]	4.77
FCADNPSELPPPSERTGGIGDSRP [M13S]	4.25
FCADNPSELPPPAERTGGIGDSRP [M13A]	5.31
FCADNPSELPPPVERTGGIGDSRP [M13V]	4.89
FCADNPSELPPPWERTGGIGDSRP [M13W]	2.97
FCADNPSELPPPCERTGGIGDSRP [M13C]	4.22
FCADNPSELPPPHERTGGIGDSRP [M13H]	4.77
FCADNPSELPPPFERTGGIGDSRP [M13F]	4.6
FCADNPSECPPPMERTGGIGDSRP [L9C]	4.79
FCADNPSEQPPPMERTGGIGDSRP [L9Q]	4.16
FCADNPSEFPPPMERTGGIGDSRP [L9F]	4.44
FCADNPSEHPPPMERTGGIGDSRP [L9H]	4.66
FCADNPSEIPPPMERTGGIGDSRP [L9I]	4.53
FCADNPSEKPPPMERTGGIGDSRP [L9K]	4.66
FCADNPSERPPPMERTGGIGDSRP [L9R]	4.32

Variant	protein stability index
FCADNPSENPPPMERTGGIGDSRP [L9N]	5.1
FCADNPSEVPPPMERTGGIGDSRP [L9V]	4.82
FCADNPSEYPPPMERTGGIGDSRP [L9Y]	4.11
FCADNPSEEPPPMERTGGIGDSRP [L9E]	5.34
FCADNPSEMPPPMERTGGIGDSRP [L9M]	4.34
FCADNPSESPPPMERTGGIGDSRP [L9S]	4.99
FCADNPSALPPPMERTGGIGDSRP [E8A]	4.36
FCADNPSFLPPPMERTGGIGDSRP [E8F]	2.6
FCADNPSTLPPPMERTGGIGDSRP [E8T]	4.02
FCADNPSGLPPPMERTGGIGDSRP [E8G]	4.37
FCADNPSQLPPPMERTGGIGDSRP [E8Q]	2.77
FCADNPSSLPPPMERTGGIGDSRP [E8S]	4.63
FCADNPSKLPPPMERTGGIGDSRP [E8K]	3.47
FCADNPSCLPPPMERTGGIGDSRP [E8C]	4.06
FCADNPSMLPPPMERTGGIGDSRP [E8M]	3.49
FCADNPSPLPPPMERTGGIGDSRP [E8P]	4.14
FCADNPSYLPPPMERTGGIGDSRP [E8Y]	3.25
FCADNPSHLPPPMERTGGIGDSRP [E8H]	3.95
FCADNPSNLPPPMERTGGIGDSRP [E8N]	4.26
FCADNPSILPPPMERTGGIGDSRP [E8I]	3.88
FCADNPSRLPPPMERTGGIGDSRP [E8R]	3.05
FCADNPSWLPPPMERTGGIGDSRP [E8W]	2.03
FCADNPSDLPPPMERTGGIGDSRP [E8D]	4.39
FCADNPSLLPPPMERTGGIGDSRP [E8L]	3.67

Variant	protein stability index
FCADNPSELPPCMERTGGIGDSRP [P12C]	4.07
FCADNPSELPPWMERTGGIGDSRP [P12W]	1.75
FCADNPSELPPVMERTGGIGDSRP [P12V]	4.62
FCADNPSELPPDMERTGGIGDSRP [P12D]	5.2
FCADNPSELPPEMERTGGIGDSRP [P12E]	4.89
FCADNPSELPPIMERTGGIGDSRP [P12I]	3.76
FCADNPSELPPRMERTGGIGDSRP [P12R]	3.93
FCADNPSELPPLMERTGGIGDSRP [P12L]	4.63
FCADNPSELPPHMERTGGIGDSRP [P12H]	4.61
FCADNPSELPPFMERTGGIGDSRP [P12F]	3.41
FCADNPSELPPMMERTGGIGDSRP [P12M]	4.19
FCADNPSELPPNMERTGGIGDSRP [P12N]	4.69
FCADNPSELPPYMERTGGIGDSRP [P12Y]	3.63
FCADNPSELPPQMERTGGIGDSRP [P12Q]	4.75
FCADNPSELPPSMERTGGIGDSRP [P12S]	4.07
FCADNPSELPPAMERTGGIGDSRP [P12A]	5.55
FCADNPSELPPGMERTGGIGDSRP [P12G]	4.39
FCADNPSELPPTMERTGGIGDSRP [P12T]	3.99
FCADNPSELPPKMERTGGIGDSRP [P12K]	4.69
FCADSPSELPPPMERTGGIGDSRP [N5S]	4.78
FCADWPSELPPPMERTGGIGDSRP [N5W]	3.23
FCADHPSELPPPMERTGGIGDSRP [N5H]	3.81
FCADIPSELPPPMERTGGIGDSRP [N5I]	4.21
FCADVPSELPPPMERTGGIGDSRP [N5V]	4.58

Variant	protein stability index
FCADQPSELPPPMERTGGIGDSRP [N5Q]	4.45
FCADDPSELPPPMERTGGIGDSRP [N5D]	4.92
FCADYPSELPPPMERTGGIGDSRP [N5Y]	3.62
FCADMPSELPPPMERTGGIGDSRP [N5M]	4.57
FCADKPSELPPPMERTGGIGDSRP [N5K]	4.29
FCADLPSELPPPMERTGGIGDSRP [N5L]	3.32
FCADFPSELPPPMERTGGIGDSRP [N5F]	2.65
FCADEPSELPPPMERTGGIGDSRP [N5E]	4.8
FCADGPSELPPPMERTGGIGDSRP [N5G]	4.46
FCADTPSELPPPMERTGGIGDSRP [N5T]	4.42
FCADAPSELPPPMERTGGIGDSRP [N5A]	4.31
FCADNPSELPPPMEMTGGIGDSRP [R15M]	4.25
FCADNPSELPPPMEGTGGIGDSRP [R15G]	4.56
FCADNPSELPPPMEKTGGIGDSRP [R15K]	4.45
FCADNPSELPPPMEATGGIGDSRP [R15A]	5.48
FCADNPSELPPPMEITGGIGDSRP [R15I]	4.56
FCADNPSELPPPMELTGGIGDSRP [R15L]	4.51
FCADNPSELPPPMEETGGIGDSRP [R15E]	5.37
FCADNPSELPPPMECTGGIGDSRP [R15C]	4.69
FCADNPSELPPPMEFTGGIGDSRP [R15F]	4.1
FCADNPSELPPPMEDTGGIGDSRP [R15D]	4.76
FCADNPSELPPPMEHTGGIGDSRP [R15H]	4.97
FCADNPCELPPPMERTGGIGDSRP [S7C]	3.85
FCADNPMELPPPMERTGGIGDSRP [S7M]	4.3

Variant	protein stability index
FCADNPAELPPPMERTGGIGDSRP [S7A]	4.57
FCADNPDELPPPMERTGGIGDSRP [S7D]	5.04
FCADNPGELPPPMERTGGIGDSRP [S7G]	4.01
FCADNPKELPPPMERTGGIGDSRP [S7K]	4.98
FCADNPRELPPPMERTGGIGDSRP [S7R]	3.58
FCADNPEELPPPMERTGGIGDSRP [S7E]	5.11
FCADNPTELPPPMERTGGIGDSRP [S7T]	4.22
FCADNPVELPPPMERTGGIGDSRP [S7V]	4.14
FCADNPYELPPPMERTGGIGDSRP [S7Y]	3.81
FCADNPNELPPPMERTGGIGDSRP [S7N]	4.45
FCADNPFELPPPMERTGGIGDSRP [S7F]	4.24
FCADNPLELPPPMERTGGIGDSRP [S7L]	4.57
FCADNPIELPPPMERTGGIGDSRP [S7I]	4.19
FCADNQSELPPPMERTGGIGDSRP [P6Q]	4.95
FCADNISELPPPMERTGGIGDSRP [P6I]	3.73
FCADNHSELPPPMERTGGIGDSRP [P6H]	4.08
FCADNWSELPPPMERTGGIGDSRP [P6W]	2.33
FCADNSSELPPPMERTGGIGDSRP [P6S]	3.95
FCADNVSELPPPMERTGGIGDSRP [P6V]	4.27
FCADNASELPPPMERTGGIGDSRP [P6A]	4.71
FCADNTSELPPPMERTGGIGDSRP [P6T]	3.99
FCADNLSELPPPMERTGGIGDSRP [P6L]	3.88
FCADNMSELPPPMERTGGIGDSRP [P6M]	3.8
FCADNNSELPPPMERTGGIGDSRP [P6N]	4.61

Variant	protein stability index
FCADNFSELPPPMERTGGIGDSRP [P6F]	4.38
FCADNYSELPPPMERTGGIGDSRP [P6Y]	4.27
FCADNDSELPPPMERTGGIGDSRP [P6D]	4.03
FCADNESELPPPMERTGGIGDSRP [P6E]	4.64
FCADNKSELPPPMERTGGIGDSRP [P6K]	4.33
FCADNGSELPPPMERTGGIGDSRP [P6G]	3.85
FCADNRSELPPPMERTGGIGDSRP [P6R]	4.19
FCADNPSELYPPMERTGGIGDSRP [P10Y]	3.74
FCADNPSELTPPMERTGGIGDSRP [P10T]	4.61
FCADNPSELVPPMERTGGIGDSRP [P10V]	4.49
FCADNPSELCPPMERTGGIGDSRP [P10C]	3.81
FCADNPSELNPPMERTGGIGDSRP [P10N]	4.54
FCADNPSELEPPMERTGGIGDSRP [P10E]	2.94
FCADNPSELHPPMERTGGIGDSRP [P10H]	4.3
FCADNPSELMPPMERTGGIGDSRP [P10M]	4.54
FCADNPSELFPPMERTGGIGDSRP [P10F]	3.41
FCADNPSELAPPMERTGGIGDSRP [P10A]	4.29
FCADNPSELLPPMERTGGIGDSRP [P10L]	4.32
FCADNPSELQPPMERTGGIGDSRP [P10Q]	4.27
FCADNPSELDPPMERTGGIGDSRP [P10D]	4.81
FCADNPSELRPPMERTGGIGDSRP [P10R]	4.08
FCADNPSELIPPMERTGGIGDSRP [P10I]	3.81
FCADNPSELKPPMERTGGIGDSRP [P10K]	4.37
FCADNPSELWPPMERTGGIGDSRP [P10W]	3.13

Variant	protein stability index
FCADNPSELGPPMERTGGIGDSRP [P10G]	4.13
FCADNPSELSPPMERTGGIGDSRP [P10S]	4.38
FCADNPSELPPPMNRTGGIGDSRP [E14N]	4.35
FCADNPSELPPPMIRTGGIGDSRP [E14I]	3.98
FCADNPSELPPPMARTGGIGDSRP [E14A]	4.24
FCADNPSELPPPMMRTGGIGDSRP [E14M]	4.37
FCADNPSELPPPMQRTGGIGDSRP [E14Q]	4.1
FCADNPSELPPPMDRTGGIGDSRP [E14D]	4.55
FCADNPSELPPPMRRTGGIGDSRP [E14R]	3.78
FCADNPSELPPPMWRTGGIGDSRP [E14W]	1.93
FCADNPSELPPPMGRTGGIGDSRP [E14G]	3.84
FCADNPSELPPPMFRTGGIGDSRP [E14F]	3.45
FCADNPSELPPPMYRTGGIGDSRP [E14Y]	3.13
FCADNPSELPPPMCRTGGIGDSRP [E14C]	3.68
FCADNPSELPPPMPRTGGIGDSRP [E14P]	4.27
FCADNPSELPPPMHRTGGIGDSRP [E14H]	4.08
FCADNPSELPPPMKRTGGIGDSRP [E14K]	4.07
FCADNPSELPPPMSRTGGIGDSRP [E14S]	4.31
FCADNPSELPPPMLRTGGIGDSRP [E14L]	3.05
FCADNPSELPPPMTRTGGIGDSRP [E14T]	4.1
